{"source": "paper PMC11011275", "about": "“Impact of Protein Nanoparticle Shape on the Immunogenicity of Antimicrobial Glycoconjugate Vaccines” (International Journal of Molecular Sciences, 2024)", "proteins": {"B1": {"name": "Pseudomonas aeruginosa Hemolysin-coregulated protein 1 double mutant G90C + R157C (Hcp1cc) (natural protein)", "chain": "MAVDMFIKIGDVKGESKDKTHAEEIDVLAWSWGMSQSGSMHMGGGGGAGKVNVQDLSFTKYIDKSTPNLMMACSSGKHYPQAKLTIRKACGENQVEYLIITLKEVLVSSVSTGGSGGEDRLTENVTLNFAQVQVDYQPQKADGAKDGGPVKYGWNICQNVQA", "notes": "Hemolysin-coregulated protein 1 (Hcp1) of Pseudomonas aeruginosa with G90C and R157C; printed monomer mass 18.3 kD; 6 copies make one ring; without reducing agent the rings stack into disulfide-bonded nanotubes (up to 8-9 rings as purified, up to 14-18 rings after the oligomerization process); also called Hcp1cc nanoring; Hcp1cc nanotube; source: tangential flow filtration"}}, "biological_target": "the molecule itself", "assay": "negative-stain transmission electron microscopy; Hcp1cc nanotubes incubated with the reducing agent DTT (nanorings)"}
{"protein": "B1", "values": [{"measurement": "stoichiometry N", "result": 6, "unit": "monomers"}]}
